# Laboratory results taken from patent publication US7618787B2, “Method of screening compound capable of accelerating or inhibiting apoptosis, apoptosis accelarator and apoptosis inhibitor” (Hisamitsu Pharmaceutical Co., Inc., priority 2004, dated 2009).
# B1: IKK-α: IKK-α protein, amino acid sequence SEQ ID NO: 24, expressed from plasmid; apoptosis enhancer (protein, listed as Homo sapiens)
# chain: MERPPGLRPGAGGPWEMRERLGTGGFGNVCLYQHRELDLKIAIKSCRLELSTKNRERWCHEIQIMKKLNHANVVKACDVPEELNILIHDVPLLAMEYCSGGDLRKLLNKPENCCGLKESQILSLLSDIGSGIRYLHENKIIHRDLKPENIVLQDVGGKIIHKIIDLGYAKDVDQGSLCTSFVGTLQYLAPELFENKPYTATVDYWSFGTMVFECIAGYRPFLHHLQPFTWHEKIKKKDPKCIFACEEMSGEVRFSSHLPQPNSLCSLIVEPMENWLQLMLNWDPQQRGGPVDLTLKQPRCFVLMDHILNLKIVHILNMTSAKIISFLLPPDESLHSLQSRIERETGINTGSQELLSETGISLDPRKPASQCVLDGVRGCDSYMVYLFDKSKTVYEGPFASRSLSDCVNYIVQDSKIQLPIIQLRKVWAEAVHYVSGLKEDYSRLFQGQRAAMLSLLRYNANLTKMKNTLISASQQLKAKLEFFHKSIQLDLERYSEQMTYGISSEKMLKAWKEMEEKAIHYAEVGVIGYLEDQIMSLHAEIMELQKSPYGRRQGDLMESLEQRAIDLYKQLKHRPSDHSYSDSTEMVKIIVHTVQSQDRVLKELFGHLSKLLGCKQKIIDLLPKVEVALSNIKEADNTVMFMQGKRQKEIWHLLKIACTQSSARSLVGSSLEGAVTPQTSAWLPPTSAEHDHSLSCVVTPQDGETSAQMIEENLNCLGHLSTIIHEANEEQGNSMMNLDWSWLTE
# Columns and labels:
# p73 [1] = target: T1, p73 (Homo sapiens, UniProt O15350); test: p73 protein level (stabilization) by immunoblot in cotransfected COS7 cells; assay type: cell-based; settings: COS7 cotransfection (FIG. 14, 15, 29)
# T1 construct: expressed in transfected cells; host or cells: COS7
# T1 sequence (O15350 1-636): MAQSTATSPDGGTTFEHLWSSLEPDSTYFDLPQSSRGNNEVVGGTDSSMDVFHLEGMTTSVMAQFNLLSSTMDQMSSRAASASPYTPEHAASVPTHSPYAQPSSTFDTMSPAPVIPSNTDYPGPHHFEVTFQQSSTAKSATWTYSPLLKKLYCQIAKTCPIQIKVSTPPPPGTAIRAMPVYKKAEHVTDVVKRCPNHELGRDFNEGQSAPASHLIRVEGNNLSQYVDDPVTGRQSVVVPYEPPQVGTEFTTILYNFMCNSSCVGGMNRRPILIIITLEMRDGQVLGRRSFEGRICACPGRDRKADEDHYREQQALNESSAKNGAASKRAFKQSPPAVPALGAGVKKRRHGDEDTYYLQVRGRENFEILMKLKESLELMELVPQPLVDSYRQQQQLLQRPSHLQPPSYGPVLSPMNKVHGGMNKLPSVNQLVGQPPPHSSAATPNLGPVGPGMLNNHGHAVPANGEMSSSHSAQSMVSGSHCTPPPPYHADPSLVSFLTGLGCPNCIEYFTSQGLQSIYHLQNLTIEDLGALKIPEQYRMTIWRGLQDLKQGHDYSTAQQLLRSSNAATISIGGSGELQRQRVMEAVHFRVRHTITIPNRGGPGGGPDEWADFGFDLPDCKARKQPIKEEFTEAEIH
# Method: (§1) Cells were transiently transfected with a total of 2 μg of expression plasmids. After 48 hours of the transfection, the cells were washed with ice-cold PBS and suspended in lysis buffer (pH 8.0; which contained 25 mM Tris-Cl, 137 mM sodium chloride, 1% Triton X-100, 1 mM phenylmethylsulfonyl fluoride (PMSF), and protease inhibitor mix (Roche Molecular Biochemicals)), followed by brief sonication. After centrifugation at 15000 rpm for 10 minutes, the supernatant was collected and assayed for protein concentrations by the Bradford assay (Bio-Rad). Equal amounts of lysates (protein amount: 50 μg) from the whole cells were denatured by boiling in Laemmli SDS-sample buffer, then separated on 10% SDS-polyacrylamide gel (SDS-PAGE), and transferred at room temperature for 1 hour to polyvinylidene difluoride (PVDF) membranes (Immobilon-P; Millipore) in Tris-glycine buffer containing 10% methanol. The membranes were blocked at room temperature for 1 hour with Tris-buffered saline (TBS-T) containing 5% skim milk and 0.1% Tween 20.
# (§2) As previously reported, some protein kinases (e.g., c-Abl and PKCδ) that interact with p73 can stabilize p73. To confirm whether IKK-α influenced the stabilization of p73, COS7 cells were transfected with a constant amount of HA-p73α expression plasmid together with or without varying amounts of IKK-α expression plasmids and examined for HA-p73α protein levels. […] Next, whether IKK-β influenced the stabilization of p73 and p53 was investigated by transient transfection.
# p73 [2] = target: T2, p73 (Homo sapiens, UniProt O15350); test: as above; assay type: cell-based; settings: COS7 cotransfection
# T2 construct: expressed in transfected cells; host or cells: COS7
# T2 sequence (O15350 1-499 isoform O15350-2): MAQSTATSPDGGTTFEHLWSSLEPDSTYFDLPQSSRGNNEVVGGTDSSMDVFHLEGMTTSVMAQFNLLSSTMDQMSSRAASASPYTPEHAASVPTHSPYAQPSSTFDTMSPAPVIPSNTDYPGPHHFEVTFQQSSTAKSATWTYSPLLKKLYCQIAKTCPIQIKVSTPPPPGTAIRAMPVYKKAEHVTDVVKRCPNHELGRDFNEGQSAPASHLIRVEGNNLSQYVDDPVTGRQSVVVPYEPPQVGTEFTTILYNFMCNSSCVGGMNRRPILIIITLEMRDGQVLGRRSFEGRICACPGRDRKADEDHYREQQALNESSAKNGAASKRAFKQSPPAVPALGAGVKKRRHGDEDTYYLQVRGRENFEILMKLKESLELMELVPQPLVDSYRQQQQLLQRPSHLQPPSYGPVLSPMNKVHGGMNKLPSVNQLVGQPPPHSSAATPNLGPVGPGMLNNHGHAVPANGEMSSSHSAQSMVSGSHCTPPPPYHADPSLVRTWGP
# Method: as §1, §2
molecule,measurement,setting,value
B1,amount of HA-p73α,p73 [1],remarkably increased the amount of HA-p73α
same,stabilization of HA-p73β,p73 [2],stabilized by IKK-α at a degree lower than that of HA-p73α
